Laboratory results: patent US20230000916A1 (University of Pennsylvania, published 2023)

Biological target: T1, F12Q CAR
T1 construct: also called F12Qz CAR; F12Q chimeric receptor
Assay: flow cytometry; K562.64.86.F12Qz cells stained with soluble biotinylated CD3 epsilon, then streptavidin-PE

binding result: binds
B1: Biotinylated Human CD3 epsilon Protein (AcroBiosystems Cat #CDE-H82E1) (other, UniProt P07766 23-126, looked up)
chain: DGNEEMGGITQTPYKVSISGTTVILTCPQYPGSEILWQHNDKNIGGDEDDKNIGSDEDHLSLKEFSELEQSGYYVCYPRGSKPEDANFYLYLRARVCENCMEMD
modifications: biotinylated
notes: Bought reagent; also called soluble CD3-epsilon protein; soluble, biotinylated CD3ε protein
